Results on ten molecules are retold here after patent US6033894A, “Kaposi's Syndrome Herpesvirus protease and assembly protein compositions and methods” (The Regents of the University of California, priority 1998, dated 2000).

Data set [1] deals with KSHV-infected B-cell line, BCBL-1. In words: Northern blot of KSHV AP and Pr/AP transcripts in BCBL-1 cells. Format: cell-based. The arrangement: production of 0.95 kb AP transcript / production of 0.95 kb and 2.3 kb transcripts: dose or concentration left out as unconfirmed. From the text:
The KSHV-infected B-cell line, BCBL-1, was employed for transcription of the KSHV Pr/AP and AP genes during lytic infection. This cell line harbors the viral genome in latent form, and treatment of these cells with TPA induces lytic replication (Renne, et al., 1996). Equivalent amounts of poly(A)-enriched RNA from uninduced or induced BCBL-1 cells in the presence or absence of phosphoroformic acid (PFA), an inhibitor of herpesviral DNA replication, were separated on a formaldehyde/agarose gel, transferred to a membrane, and hybridized to a probe derived from the 1.5 kb fragment containing the Pr/AP ORF of KSHV, as detailed in Example 6.
BCBL-1 cells (Renne, et al., 1996) were treated with phosphoroformic acid (PFA) at a concentration of 500 mM for at least 3 days prior to induction. Untreated and PFA treated cells were then split into identical flasks, at 3×10^5 cells/ml, and left unstimulated or induced with 12-O-tetradecanoyl phorbol-13-acetate (TPA) at a concentration of 20 ng/ml. After 48 hours, total RNA was harvested using RNAzol B as recommended by the manufacturer (Tel-Test, Friendwood, Tex.). To enrich the polyadenylated RNA fraction, 300 μg RNA samples, uninduced and induced with TPA, and with and without PFA treatment, were affinity purified using the Oligotex mRNA purification system (Qiagen, Chatsworth, Calif.). RNA was separated on a 1% agarose, 17% formaldehyde gel, transferred to Hybond-N nylon membrane in 10× SSC for 5 hours, and UV-crosslinked. The 1.5 kb insert from pBS1.5 was gel purified and labelled using the rediPrime Random Prime kit (Amersham Corporation, Arlington Heights, Ill.). Hybridization was performed as according to standard methods (Renne, et al., 1996), and the blot was exposed to Kodak XAR5 film for 8 hours.

Data set [2] has as its target fluorogenic peptide substrate DABCYL-Arg-Gly-Val-Val-Asn-Ala-Ser-Ser-Arg-Leu-Ala-EDANS (HCMV).
Data set [3] relates to HCMV M-site peptide substrate DABCYL-[…]-EDANS. In words: Continuous fluorometric assay of cleavage of fluorogenic peptide substrate. Format: biochemical. The settings on record: for increase in fluorescence intensity (F/Fo) from peptide hydrolysis: 1.5 μM enzyme, 10 μM substrate, pH 5.5, 37° C., by five hours; for rate of hydrolysis of HCMV substrate relative to 1.5 μM wild-type KSHV Pr: 1 μM trypsin D102N or 1 nM trypsin vs 1.5 μM KSHV Pr, one-hour time course; for proteolytic activity relative to KSHV Pr: assayed according to the method of Example 5. The protocol: Such activities can be determined by comparing the activity of a KSHV PR, as defined herein, to that of the KSHV Pr having the sequence SEQ ID NO:7. For example, in experiments carried out in support of the present invention, recombinantly produced His6 -KSHV Pr and variant His6 -KSHV Pr(S114A) proteins were tested for ability to cleave a synthetic peptide substrate. The substrate, containing the HCMV M-site peptide sequence RGVVNASSRLA (SEQ ID NO:15) flanked by a fluorogenic donor-acceptor pair, allows for continuous monitoring of peptide hydrolysis due to fluorescence enhancement arising from donor-acceptor separation (Holskin, et al., 1995). This substrate contains an internal Arg residue, allowing for cleavage by trypsin, an extremely well-characterized serine protease.
Protease assays using the fluorogenic peptide substrate DABCYL-Arg-Gly-Val-Val-Asn-Ala-Ser-Ser-Arg-Leu-Ala-EDANS, where RGVVNASSRLA (SEQ ID NO:15) was obtained from BACHEM (King of Prussia, Pa.), were monitored optically by a Perkin-Elmer LS-5B luminescence spectrophotometer interfaced with a Macintosh SE-30 computer. DABCYL represents 4-(4'-Dimethylaminophenylazo)benzoic acid, and EDANS signifies (2'-aminoethylamino)-naphthalene-1-sulfonic acid. His6 -Pr and His6 -Pr(S114A) were diluted 10-fold from storage buffer into assay buffer (50 mM NaOAc (pH 5.5), 20% (v/v) glycerol, 0.1 mM EDTA, 0.1 mM DTT), equilibrated to 37° C. for 5 minutes in thermostatted quartz cuvettes, and manually mixed with a final substrate concentration of 10 μM. A pH 5.5 buffer was utilized due to slightly higher proteolytic activity than that observed in pH 7.5 Tris-based solutions. The final KSHV Pr concentrations were 1.5 μM. Time-evolved fluorescence enhancement was followed by exciting the samples at 355 nm and detecting emission at 495 nm. Trypsin and its D102N variant (Craik, et al., 1987) were diluted into the same assay buffer to final concentrations of 1 nM and 1 μM, respectively, and treated identically to the KSHV enzymes. The ratio of fluorescence at each time point (F) was then compared with the initial fluorescence output (FO) to generate plots of F/FO vs. time.

In data set [4] the target is T1, KSHV protease Pr(S204G), an autolytically stable variant (Human herpesvirus 8 strain GK18, UniProt Q2HRB6, S204G).
T1 construct: S204G, untagged, recombinant in E. coli; source DNA from pulmonary KS tumor clone
T1 sequence (Q2HRB6 1-230 A226V): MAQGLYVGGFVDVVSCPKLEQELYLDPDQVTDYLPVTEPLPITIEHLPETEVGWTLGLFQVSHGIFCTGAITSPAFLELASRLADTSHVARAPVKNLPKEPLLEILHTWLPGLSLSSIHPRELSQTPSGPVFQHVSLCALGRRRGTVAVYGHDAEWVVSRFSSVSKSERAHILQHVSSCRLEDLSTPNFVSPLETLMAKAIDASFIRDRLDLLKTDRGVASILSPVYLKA
In words: Fluorometric enzyme assay, inhibition of KSHV protease. The class given is biochemical, Kaposi's Sarcoma Herpesvirus (KSHV). The note with it: 0.5 μM enzyme Pr(S204G), 300 μM inhibitor, 15 min pre-incubation, 20 μM fluorogenic substrate.

Data set [5] concerns the target fluorogenic peptide substrate DABCYL-Arg-Gly-Val-Val-Asn-Ala-Ser-Ser-Arg-Leu-Ala-EDANS (HCMV). This is another data set of the same source.

“Also recorded” adds a separate entry of the source. Peptide text beside a SMILES is read from it. * marks the point of attachment. Boc = CC(C)(C)OC(=O)*; CH2Cl = ClC*

With `CCCCCCCCCCCCCC(=O)O[C@@H]1[C@@H](C)[C@@]2(O)[C@@H](C=C(CO)C[C@]3(O)C(=O)C(C)=C[C@@H]23)[C@@H]2C(C)(C)[C@]12OC(C)=O` [TPA, 12-O-tetradecanoyl phorbol-13-acetate], the “production of 0.95 kb AP transcript upon lytic induction” value in data set [1] (BCBL-1 cells, TPA 20 ng/ml, 48 hours) is given as “strongly upregulated”.

For KSHV His6-Pr (enzyme), the fluorescence enhancement (F/Fo) from hydrolysis of the fluorogenic peptide (fold increase in fluorescence intensity) in data set [2] is 3.

On to `O=C(O)P(=O)(O)O` [PFA, phosphoroformic acid], for which, in data set [1] (TPA-induced BCBL-1 cells), the “production of 0.95 kb and 2.3 kb transcripts” value was “strongly inhibited”. Also, the “production of 0.95 kb AP transcript” value in data set [1] (uninduced BCBL-1 cells) is on record as “strongly inhibited”.

On to “KSHV Pr: recombinant KSHV protease (SEQ ID NO:7) with amino-terminal His6 tag, expressed in E. coli”, for which the “increase in fluorescence intensity (F/Fo) from peptide hydrolysis” value in data set [3] was “nearly three-fold increase”.

In the case of `CC(C)C[C@H](NC(=O)[C@H](Cc1ccc(O)cc1)NC(=O)OC(C)(C)C)C(=O)N[C@@H](CCCCN)C(=O)N[C@@H](C)C(=O)CCl` [Boc-YLKA-COCH2 Cl] (Boc-YLKA-CH2Cl), the “inhibition of protease activity” value in data set [4] is recorded as “Complete inhibition”.

Consider “trypsin D102N (from UniProt P00763) (enzyme)”, for which the fluorescence enhancement (F/Fo) from hydrolysis of the fluorogenic peptide (fold faster than KSHV Pr) in data set [5] was determined as 2.

B1: trypsin D102N: trypsin in which the active site Asp residue has been replaced with Asn (protein)
chain: IVGGYTCQENSVPYQVSLNSGYHFCGGSLINDQWVVSAAHCYKSRIQVRLGEHNINVLEGNEQFVNAAKIIKHPNFDRKTLNNDIMLIKLSSPVKLNARVATVALPSSCAPAGTQCLISGWGNTLSSGVNEPDLLQCLDAPLLPQADCEASYPGKITDNMVCVGFLEGGKDSCQGDSGGPVVCNGELQGIVSWGYGCALPDNPGVYTKVCNYVDWIQDTIAAN
As to B1, the “rate of hydrolysis of HCMV substrate relative to 1.5 μM wild-type KSHV Pr” value in data set [3] is reported as 2 fold. For the same molecule, the “catalytic efficiency relative to trypsin” value in data set [3] (under the conditions used herein) is given as “roughly 5000 fold”.

B2: trypsin: extremely well-characterized serine protease used for comparison (protein)
chain: IVGGYTCQENSVPYQVSLNSGYHFCGGSLINDQWVVSAAHCYKSRIQVRLGEHNINVLEGNEQFVNAAKIIKHPNFDRKTLNNDIMLIKLSSPVKLNARVATVALPSSCAPAGTQCLISGWGNTLSSGVNEPDLLQCLDAPLLPQADCEASYPGKITDNMVCVGFLEGGKDSCQGDSGGPVVCNGELQGIVSWGYGCALPDNPGVYTKVCNYVDWIQDTIAAN
B2: in data set [3], the “rate of hydrolysis of HCMV substrate relative to 1.5 μM wild-type KSHV Pr” value is reported as “substantially more active than the KSHV enzyme”.

B3: Pr(S204G): KSHV protease variant engineered to stabilize the enzyme against autoproteolysis, expressed without His6 tag (protein)
chain: MAQGLYVGGFVDVVSCPKLEQELYLDPDQVTDYLPVTEPLPITIEHLPETEVGWTLGLFQVSHGIFCTGAITSPAFLELASRLADTSHVARAPVKNLPKEPLLEILHTWLPGLSLSSIHPRELSQTPSGPVFQHVSLCALGRRRGTVAVYGHDAEWVVSRFSSVSKSERAHILQHVSSCRLEDLSTPNFVSPLETLMAKAIDAGFIRDRLDLLKTDRGVASILSPVYLKA
As to B3, in data set [3], the “proteolytic activity relative to KSHV Pr” value was “essentially the same activity as Pr; also recorded: substantially the same activity as Pr”.

B4: S114A variant: KSHV protease variant in which the active-site Ser-114 was converted to Ala (protein)
chain (part 1 of 2): MRGS
chain (part 2 of 2): GSAQGLYVGGFVDVVSCPKLEQELYLDPDQVTDYLPVTEPLPITIEHLPETEVGWTLGLFQVSHGIFCTGAITSPAFLELASRLADTSHVARAPVKNLPKEPLLEILHTWLPGLALSSIHPRELSQTPSGPVFQHVSLCALGRRRGTVAVYGHDAEWVVSRFSSVSKSERAHILQHVSSCRLEDLSTPNFVSPLETLMAKAIDASFIRDRLDLLKTDRGVASILSPVYLKA
For B4, in data set [3], the “increase in fluorescence intensity (F/Fo) from peptide hydrolysis” value was “minimal enhancement” and the “proteolytic activity relative to KSHV Pr” value is on record as 1/10.
